These results are taken from patent publication US20110160081A1, “FUNCTIONAL COMPLEMENTATION ASSAY FOR DEFINED GPCR OLIGOMERS” (priority 2008, published 2011).

Common to all, as to assay: cell-based or functional assay
Assay [1] has as its target DOR-Gqi5 (delta opiate receptor fused to Gqi5) (mouse).
Another assay has as its target N393A/CAM-Gqi5 (human).
In assay [2] the target is D114^3.32A/E339^6.30A/T343^6.34R-Gq5 (human).

Chain of Myc-tagged D2R (unfused wild type dopamine D2 receptor, short isoform) (P14416 other isoform, or with tags, fused parts or gaps): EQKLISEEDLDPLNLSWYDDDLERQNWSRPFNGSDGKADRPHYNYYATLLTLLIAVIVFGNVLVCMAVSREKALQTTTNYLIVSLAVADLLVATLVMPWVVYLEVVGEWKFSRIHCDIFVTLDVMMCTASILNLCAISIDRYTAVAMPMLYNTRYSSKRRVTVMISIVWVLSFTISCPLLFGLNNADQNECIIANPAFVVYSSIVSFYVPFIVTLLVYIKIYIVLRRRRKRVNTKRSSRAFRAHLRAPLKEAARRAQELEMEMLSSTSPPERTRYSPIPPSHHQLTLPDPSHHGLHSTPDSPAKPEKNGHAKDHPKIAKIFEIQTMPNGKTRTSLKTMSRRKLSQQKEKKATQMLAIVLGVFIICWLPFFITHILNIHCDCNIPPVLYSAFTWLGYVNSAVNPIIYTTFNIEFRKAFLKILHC

Regarding “Myc-tagged D2R (unfused wild type dopamine D2 receptor, short isoform) (from UniProt P14416 2-443)”, the potency of quinpirole in the presence of 5 nM DPDPE, aequorin luminescence in assay [1] was found to be 10 fold. This substance also showed an aequorin luminescence on quinpirole (functional complementation) with N393A/CAM-Gqi5 (human) of 3 fold. In assay [2], the maximal activity, aequorin luminescence came to 49.6.
DPDPE (peptide) came in with an activation at 5 nM DPDPE, aequorin luminescence in assay [1] of 10 % activation.
